Article PMC9898148 (Structure (London, England : 1993), 2022)

Columns and labels:
[1] = target: T1, hNAA35^28-725 (large auxiliary subunit of human NatC, N-terminally truncated) (human, UniProt Q5VZE5 28-725); assay: cryo-EM structure
T1 sequence (looked up): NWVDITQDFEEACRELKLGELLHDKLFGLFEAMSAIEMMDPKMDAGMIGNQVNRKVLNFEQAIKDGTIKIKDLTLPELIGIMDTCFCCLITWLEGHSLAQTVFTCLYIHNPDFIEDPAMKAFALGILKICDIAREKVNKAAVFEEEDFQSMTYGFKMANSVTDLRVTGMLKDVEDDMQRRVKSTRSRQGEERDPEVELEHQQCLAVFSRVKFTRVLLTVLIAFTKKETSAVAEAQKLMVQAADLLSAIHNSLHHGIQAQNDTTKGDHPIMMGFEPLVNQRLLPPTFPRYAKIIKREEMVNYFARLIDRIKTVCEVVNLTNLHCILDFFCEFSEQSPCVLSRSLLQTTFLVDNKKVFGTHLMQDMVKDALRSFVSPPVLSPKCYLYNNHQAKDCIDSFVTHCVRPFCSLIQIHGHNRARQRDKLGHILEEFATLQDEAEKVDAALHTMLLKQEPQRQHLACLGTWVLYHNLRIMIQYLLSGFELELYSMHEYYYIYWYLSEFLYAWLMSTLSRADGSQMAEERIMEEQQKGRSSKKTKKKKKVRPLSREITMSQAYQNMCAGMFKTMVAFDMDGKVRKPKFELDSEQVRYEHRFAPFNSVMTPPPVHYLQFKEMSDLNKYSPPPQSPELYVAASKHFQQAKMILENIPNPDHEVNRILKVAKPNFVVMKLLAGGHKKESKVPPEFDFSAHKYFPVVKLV

[2] = target: T2, hNAA30^211-362 (catalytic subunit of human NatC, N-terminally truncated) (human, UniProt Q147X3 211-362); assay: cryo-EM structure
T2 sequence (looked up): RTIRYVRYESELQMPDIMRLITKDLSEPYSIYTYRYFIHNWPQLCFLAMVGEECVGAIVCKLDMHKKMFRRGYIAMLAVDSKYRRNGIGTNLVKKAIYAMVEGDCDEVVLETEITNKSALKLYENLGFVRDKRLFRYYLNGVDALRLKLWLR

B1: hNAA38^1-125 (small auxiliary subunit of human NatC, full length) (natural protein, UniProt Q9BRA0 1-125, looked up)
chain: MAGAGPTMLLREENGCCSRRQSSSSAGDSDGEREDSAAERARQQLEALLNKTMRIRMTDGRTLVGCFLCTDRDCNVILGSAQEFLKPSDSFSAGEPRVLGLAMVPGHHIVSIEVQRESLTGPPYL
[1]
  binding result: binds

## {CoA‑Ac}-MLGPE-NH2 [CoA-Ac-MLGPE-NH2 bisubstrate inhibitor]
[2]
  binding result: binds
